Results: patent publication US20100196934A1

Tests used:
[1] = target: Sheep recombinant PrP (sheep); experiment: direct ELISA, coated denatured rPrP 1 ng/assay
[2] = target: Human recombinant PrP (human); experiment: direct ELISA, coated denatured rPrP 1 ng/assay
[3] = target: Bovine recombinant PrP (bovine); experiment: direct ELISA, coated denatured rPrP 1 ng/assay
[4] = target: Deer recombinant PrP (deer); experiment: direct ELISA, coated denatured rPrP 1 ng/assay
[5] = target: Mouse recombinant PrP (mouse); experiment: direct ELISA, coated denatured rPrP 1 ng/assay
[6] = target: Sheep recombinant PrP (sheep); experiment: direct ELISA, coated denatured rPrP 0.1 ng/assay
[7] = target: Human recombinant PrP (human); experiment: direct ELISA, coated denatured rPrP 0.1 ng/assay
[8] = target: Bovine recombinant PrP (bovine); experiment: direct ELISA, coated denatured rPrP 0.1 ng/assay
[9] = target: Deer recombinant PrP (deer); experiment: direct ELISA, coated denatured rPrP 0.1 ng/assay
[10] = target: Mouse recombinant PrP (mouse); experiment: direct ELISA, coated denatured rPrP 0.1 ng/assay
Mouse BH PrP^Sc (mouse) [11] = experiment: direct ELISA, coated denatured mouse BH PrP^Sc 1 mg BH/assay
Mouse BH PrP^Sc (mouse) [12] = experiment: direct ELISA, coated denatured mouse BH PrP^Sc 0.1 mg BH/assay

Substance	RLU [1] [RLU]	RLU [2] [RLU]	RLU [3] [RLU]	RLU [4] [RLU]	RLU [5] [RLU]	RLU [6] [RLU]	RLU [7] [RLU]	RLU [8] [RLU]	RLU [9] [RLU]	RLU [10] [RLU]	RLU (Mouse BH PrP^Sc (mouse) [11]) [RLU]	RLU (Mouse BH PrP^Sc (mouse) [12]) [RLU]
HuM D13 (antibody)	161	69.9	93.1	130	294	179	89.5	75.1	232	117	664	239
HuM D18 (antibody)	186	94.7	132	121	1770	169	77.5	109	134	366	2230	376
Mouse anti Prion (MAB5424) (antibody)	899	67.6	827	118	605	214	76.1	84.6	104	90.1	601	167
Mouse anti Prion (SAF-32) (antibody)	1440	1570	2400	2320	73.3	294	285	450	457	97.6	551	176
Mouse anti Prion (SAF-53) (antibody)	154	93.5	145	263	612	100	85.2	76.6	144	70.8	667	165
Mouse anti Prion (SAF-61) (antibody)	113	101	136	190	464	115	90.4	67.6	150	142	579	169
